Reference: PMC8487046 (2021)

Biological target: acetylated BSA (AcBSA) (bovine (from the name BSA), UniProt P02769 25-607, acetylated (lysyl acetylation); extent not stated)
Test: SPR

acetylated BSA (AcBSA), sequence (P02769 25-607): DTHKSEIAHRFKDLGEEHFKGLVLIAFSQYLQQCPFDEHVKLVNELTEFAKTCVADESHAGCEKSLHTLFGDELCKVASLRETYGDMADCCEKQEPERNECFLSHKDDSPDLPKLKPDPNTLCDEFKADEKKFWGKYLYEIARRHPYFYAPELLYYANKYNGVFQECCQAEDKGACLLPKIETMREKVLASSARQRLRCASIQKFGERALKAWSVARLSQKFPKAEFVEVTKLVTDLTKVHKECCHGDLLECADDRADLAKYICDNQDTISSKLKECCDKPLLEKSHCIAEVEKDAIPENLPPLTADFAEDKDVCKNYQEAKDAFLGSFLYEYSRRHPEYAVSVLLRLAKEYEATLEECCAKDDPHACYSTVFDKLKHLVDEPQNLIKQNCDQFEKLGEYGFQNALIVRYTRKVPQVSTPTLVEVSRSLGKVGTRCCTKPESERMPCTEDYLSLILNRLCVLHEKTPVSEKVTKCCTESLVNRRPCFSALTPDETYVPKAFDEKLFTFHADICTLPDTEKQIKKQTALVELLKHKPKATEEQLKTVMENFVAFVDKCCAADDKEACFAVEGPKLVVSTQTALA

B1: SR‐F1(20‐421), SR‐F1 ectodomain (domain or fragment)
chain: SELDPKGQHVCVASSPSAELQCCAGWRQKDQECTIPICEGPDACQKDEVCVKPGLCRCKPGFFGAHCSSRCPGQYWGPDCRESCPCHPHGQCEPATGACQCQADRWGARCEFPCACGPHGRCDPATGVCHCEPGWWSSTCRRPCQCNTAAARCEQATGACVCKPGWWGRRCSFRCNCHGSPCEQDSGRCACRPGWWGPECQQQCECVRGRCSAASGECTCPPGFRGARCELPCPAGSHGVQCAHSCGRCKHNEPCSPDTGSCESCEPGWNGTQCQQPCLPGTFGESCEQQCPHCRHGEACEPDTGHCQRCDPGWLGPRCEDPCPTGTFGEDCGSTCPTCVQGSCDTVTGDCVCSAGYWGPSCNASCPAGFHGNNCSVPCECPEGLCHPVSGSCQPGSGSRDT
  Kd: 917 nM
